For data set [1], the target named is T1, nhr-66 (T09A12.4) (Caenorhabditis elegans) (UniProt H2KYJ8).
T1 sequence: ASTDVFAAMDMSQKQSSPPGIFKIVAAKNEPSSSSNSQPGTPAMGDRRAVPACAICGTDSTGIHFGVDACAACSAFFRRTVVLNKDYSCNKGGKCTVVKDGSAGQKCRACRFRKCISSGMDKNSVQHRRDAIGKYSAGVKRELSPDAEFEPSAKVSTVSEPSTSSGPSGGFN

Data set [2] addresses T2, nhr-3 (H01A20.1) (Caenorhabditis elegans) (UniProt Q9XTJ4).
T2 sequence: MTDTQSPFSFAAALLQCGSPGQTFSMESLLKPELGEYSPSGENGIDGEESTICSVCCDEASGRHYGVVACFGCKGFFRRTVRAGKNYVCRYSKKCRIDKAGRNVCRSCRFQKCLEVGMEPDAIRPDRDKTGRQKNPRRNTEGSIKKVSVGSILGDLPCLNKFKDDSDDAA

For data set [3], the target named is nhr-34 (F58G6.5) (Caenorhabditis elegans) (UniProt Q21006).
Data set [4] concerns T3, nhr-216 (T09D3.4) (Caenorhabditis elegans).
T3 sequence: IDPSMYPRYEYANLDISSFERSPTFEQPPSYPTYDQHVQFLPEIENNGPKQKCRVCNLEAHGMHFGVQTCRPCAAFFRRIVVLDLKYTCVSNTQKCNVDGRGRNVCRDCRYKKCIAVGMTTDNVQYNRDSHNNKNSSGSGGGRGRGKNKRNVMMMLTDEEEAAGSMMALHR

In data set [5] the target is T4, atf-5 (T04C10.4) (Caenorhabditis elegans) (UniProt Q22156).
T4 sequence: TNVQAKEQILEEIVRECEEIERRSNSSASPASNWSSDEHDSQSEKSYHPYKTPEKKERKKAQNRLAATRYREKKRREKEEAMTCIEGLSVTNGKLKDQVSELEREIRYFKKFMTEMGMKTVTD

Data set [6] has as its target atf-7 (C07G2.2) (Caenorhabditis elegans) (UniProt Q86MD3).
The target in data set [7] is T5, nhr-1 (R09G11.2) (Caenorhabditis elegans) (UniProt Q21878).
T5 sequence: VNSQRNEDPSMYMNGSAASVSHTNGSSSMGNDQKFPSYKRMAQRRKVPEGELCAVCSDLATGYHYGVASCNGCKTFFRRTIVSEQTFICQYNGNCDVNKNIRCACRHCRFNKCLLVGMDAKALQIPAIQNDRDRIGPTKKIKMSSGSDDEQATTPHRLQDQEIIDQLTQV

Data set [8] concerns the target T6, nhr-204 (R02C2.4) (Caenorhabditis elegans) (UniProt O44543).
T6 sequence: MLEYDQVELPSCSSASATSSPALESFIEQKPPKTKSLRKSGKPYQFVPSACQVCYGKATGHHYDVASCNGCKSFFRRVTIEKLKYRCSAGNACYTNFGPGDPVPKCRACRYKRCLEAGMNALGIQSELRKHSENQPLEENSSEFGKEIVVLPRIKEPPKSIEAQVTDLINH

Data set [9] concerns the target T7, atf-6 (F45E6.2) (Caenorhabditis elegans) (UniProt Q20435).
T7 sequence: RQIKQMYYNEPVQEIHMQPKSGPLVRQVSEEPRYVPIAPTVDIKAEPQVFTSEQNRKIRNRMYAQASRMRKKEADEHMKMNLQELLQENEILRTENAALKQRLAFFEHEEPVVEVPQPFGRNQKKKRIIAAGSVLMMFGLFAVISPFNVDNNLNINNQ

Data set [10] deals with T8, nhr-46 (C45E5.6) (Caenorhabditis elegans) (UniProt Q95QR2).
T8 sequence: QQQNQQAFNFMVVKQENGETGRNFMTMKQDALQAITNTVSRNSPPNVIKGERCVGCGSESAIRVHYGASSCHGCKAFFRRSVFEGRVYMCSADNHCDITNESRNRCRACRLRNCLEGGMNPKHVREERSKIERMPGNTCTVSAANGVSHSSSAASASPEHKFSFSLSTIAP

Data set [11] has as its target T9, ceh-34 (C10G8.6) (Caenorhabditis elegans) (UniProt Q94165).
T9 sequence: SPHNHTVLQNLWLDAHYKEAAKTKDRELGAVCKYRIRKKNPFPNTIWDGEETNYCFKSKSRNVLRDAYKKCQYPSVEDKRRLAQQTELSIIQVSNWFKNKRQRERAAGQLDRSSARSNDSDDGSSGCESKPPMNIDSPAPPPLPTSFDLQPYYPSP

Data set [12] addresses T10, end-1 (F58E10.2) (Caenorhabditis elegans) (UniProt G5EDN4).
T10 sequence: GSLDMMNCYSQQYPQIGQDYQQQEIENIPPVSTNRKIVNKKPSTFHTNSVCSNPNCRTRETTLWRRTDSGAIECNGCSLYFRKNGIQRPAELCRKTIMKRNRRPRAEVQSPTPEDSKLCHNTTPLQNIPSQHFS

Sequence of nhr-34 (F58G6.5) (Caenorhabditis elegans) (Q21006 99-268): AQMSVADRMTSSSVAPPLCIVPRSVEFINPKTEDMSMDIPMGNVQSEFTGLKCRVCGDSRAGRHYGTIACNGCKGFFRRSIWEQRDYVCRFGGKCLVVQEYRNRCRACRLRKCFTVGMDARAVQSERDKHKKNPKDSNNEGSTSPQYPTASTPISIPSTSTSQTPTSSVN
Sequence of atf-7 (C07G2.2) (Caenorhabditis elegans) (Q86MD3 339-508): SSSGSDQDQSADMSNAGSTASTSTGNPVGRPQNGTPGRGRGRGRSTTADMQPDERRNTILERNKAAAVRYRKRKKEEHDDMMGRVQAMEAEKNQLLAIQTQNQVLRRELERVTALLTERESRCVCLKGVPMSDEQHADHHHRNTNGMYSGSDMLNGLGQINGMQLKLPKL

Consider “AAACTACA (double strand) [8-mer AAACTACA]”, for which, in data set [1], the binding signal (PBM E-score (-0.5 to 0.5)) was 0.484. The same measure, in the same setting: the figure for “AACTACAC (double strand) [8-mer AACTACAC]” is 0.486. Regarding “AAGATCAC (double strand) [8-mer AAGATCAC]”, in data set [2], the binding signal (PBM E-score (-0.5 to 0.5)) was 0.471. Regarding “AAGATCAG (double strand) [8-mer AAGATCAG]”, the binding signal (PBM E-score (-0.5 to 0.5)) in [3] turned out to be 0.47; in data set [2] it was 0.466. In the case of “AAGTCAGA (double strand) [8-mer AAGTCAGA]”, in data set [4], the binding signal (PBM E-score (-0.5 to 0.5)) worked out at 0.493. Same read-out and setting: the figure for “AATCAGAA (double strand) [8-mer AATCAGAA]” is 0.497.

As for “AATGACGT (double strand) [8-mer AATGACGT]”, the figures for the binding signal (PBM E-score (-0.5 to 0.5)) in [5] and in [6] were 0.459 and 0.497, respectively. As for “AATGATCA (double strand) [8-mer AATGATCA]”, the binding signal (PBM E-score (-0.5 to 0.5)) in data set [7] was 0.493. Regarding “AATGTAGT (double strand) [8-mer AATGTAGT]”, in data set [1], the binding signal (PBM E-score (-0.5 to 0.5)) was 0.48.

As to “AATTGATC (double strand) [8-mer AATTGATC]”, the binding signal (PBM E-score (-0.5 to 0.5)) in data set [8] was determined as 0.477.

“AATTGGTC (double strand) [8-mer AATTGGTC]” displayed a binding signal (PBM E-score (-0.5 to 0.5)) in data set [8] of 0.484. In turn, “ACAGATCA (double strand) [8-mer ACAGATCA]” gave a binding signal (PBM E-score (-0.5 to 0.5)) in data set [2] of 0.456. Turning to “ACGTCAGC (double strand) [8-mer ACGTCAGC]”, the figures for the binding signal (PBM E-score (-0.5 to 0.5)) in [9] and in data set [5] were 0.469 and 0.491, respectively. In [1], “ACTACAAC (double strand) [8-mer ACTACAAC]” gave a binding signal (PBM E-score (-0.5 to 0.5)) of 0.482. Regarding “ACTACACA (double strand) [8-mer ACTACACA]”, the binding signal (PBM E-score (-0.5 to 0.5)) in [1] amounted to 0.484. Same read-out and setting: the result for “ACTACACG (double strand) [8-mer ACTACACG]” reads 0.481; that for “ACTACACT (double strand) [8-mer ACTACACT]”, 0.487. For the sequence “ACTGATCA (double strand) [8-mer ACTGATCA]”, the binding signal (PBM E-score (-0.5 to 0.5)) in data set [7] was determined as 0.478; in data set [8], 0.477. Regarding “AGACCAAT (double strand) [8-mer AGACCAAT]”, the binding signal (PBM E-score (-0.5 to 0.5)) in data set [8] came to 0.486. With “AGAGATCA (double strand) [8-mer AGAGATCA]”, the binding signal (PBM E-score (-0.5 to 0.5)) in [3] was determined as 0.488; in data set [7], 0.474; in [10], 0.478; in data set [2], 0.462. Turning to “AGATCAAC (double strand) [8-mer AGATCAAC]”, the binding signal (PBM E-score (-0.5 to 0.5)) in [3] stood at 0.478; in data set [10], 0.483; in data set [2], 0.467. In the case of “AGATCAAT (double strand) [8-mer AGATCAAT]”, the binding signal (PBM E-score (-0.5 to 0.5)) in data set [3] came out at 0.486; in [10], 0.49; in [2] it was 0.473.

“AGCGATCA (double strand) [8-mer AGCGATCA]” returned a binding signal (PBM E-score (-0.5 to 0.5)) in data set [7] of 0.476. As for “AGGGATCA (double strand) [8-mer AGGGATCA]”, the binding signal (PBM E-score (-0.5 to 0.5)) in data set [7] is 0.479. In [2], “AGGTCAAC (double strand) [8-mer AGGTCAAC]” returned a binding signal (PBM E-score (-0.5 to 0.5)) of 0.465. As for “AGTCAGAA (double strand) [8-mer AGTCAGAA]”, the binding signal (PBM E-score (-0.5 to 0.5)) in [4] stood at 0.498. As to “AGTGATCA (double strand) [8-mer AGTGATCA]”, the binding signal (PBM E-score (-0.5 to 0.5)) in data set [7] came out at 0.495.

In [2], “ATAGATCA (double strand) [8-mer ATAGATCA]” displayed a binding signal (PBM E-score (-0.5 to 0.5)) of 0.466. Turning to “ATGATCAC (double strand) [8-mer ATGATCAC]”, the binding signal (PBM E-score (-0.5 to 0.5)) in [7] came to 0.486. On the same count and under the same terms, the figure for “ATGATCAT (double strand) [8-mer ATGATCAT]” is 0.476. For “ATTGATCA (double strand) [8-mer ATTGATCA]”, the binding signal (PBM E-score (-0.5 to 0.5)) is 0.479 in [7] and 0.489 in [8]. In turn, “CAACTACA (double strand) [8-mer CAACTACA]” had a binding signal (PBM E-score (-0.5 to 0.5)) in [1] of 0.484. For “CAGACCAA (double strand) [8-mer CAGACCAA]”, the binding signal (PBM E-score (-0.5 to 0.5)) in data set [8] is 0.479.

The sequence “CGTCAGCA (double strand) [8-mer CGTCAGCA]” displayed a binding signal (PBM E-score (-0.5 to 0.5)) in [5] of 0.457.

In data set [5], “CGTCAGCC (double strand) [8-mer CGTCAGCC]” displayed a binding signal (PBM E-score (-0.5 to 0.5)) of 0.491. The same measure, in the same setting: the figure for “CGTCATCC (double strand) [8-mer CGTCATCC]” is 0.487.

On to “CTGACGTA (double strand) [8-mer CTGACGTA]”, for which the binding signal (PBM E-score (-0.5 to 0.5)) was found to be 0.474 in data set [9] and 0.455 in data set [5].

In turn, “CTGATCAA (double strand) [8-mer CTGATCAA]” had a binding signal (PBM E-score (-0.5 to 0.5)) in [8] of 0.481. As for “GAAGATCA (double strand) [8-mer GAAGATCA]”, the binding signal (PBM E-score (-0.5 to 0.5)) in [3] and in [10] was 0.466 each time. For “GACCAAAA (double strand) [8-mer GACCAAAA]”, in data set [8], the binding signal (PBM E-score (-0.5 to 0.5)) is 0.476. Take “GAGATCAA (double strand) [8-mer GAGATCAA]”: the binding signal (PBM E-score (-0.5 to 0.5)) in data set [3] turned out to be 0.491; in data set [10], 0.495; in data set [2] it was 0.46. The sequence “GATGATCA (double strand) [8-mer GATGATCA]” yielded a binding signal (PBM E-score (-0.5 to 0.5)) in data set [7] of 0.488. Same read-out and setting: the result for “GGTGATCA (double strand) [8-mer GGTGATCA]” reads 0.488. “GTGATCAA (double strand) [8-mer GTGATCAA]”: the binding signal (PBM E-score (-0.5 to 0.5)) was 0.472 in data set [7] and 0.478 in [8]. Sequence “GTGATCAC (double strand) [8-mer GTGATCAC]” showed a binding signal (PBM E-score (-0.5 to 0.5)) in data set [7] of 0.489. Regarding “GTTGATCA (double strand) [8-mer GTTGATCA]”, the binding signal (PBM E-score (-0.5 to 0.5)) turned out to be 0.477 in data set [7] and 0.482 in data set [8].

For “TAAGATCA (double strand) [8-mer TAAGATCA]”, the values for the binding signal (PBM E-score (-0.5 to 0.5)) in [10] and in data set [2] were 0.474 and 0.477, respectively. As to “TAGACCAA (double strand) [8-mer TAGACCAA]”, the binding signal (PBM E-score (-0.5 to 0.5)) in [8] was 0.479. In the case of “TCTGATCA (double strand) [8-mer TCTGATCA]”, the binding signal (PBM E-score (-0.5 to 0.5)) in data set [8] worked out at 0.482.

Turning to “TGATATCA (double strand) [8-mer TGATATCA]”, the binding signal (PBM E-score (-0.5 to 0.5)) stood at 0.483 in data set [11], 0.474 in data set [5] and 0.493 in data set [12]. “TGATCAAA (double strand) [8-mer TGATCAAA]”: the binding signal (PBM E-score (-0.5 to 0.5)) in data set [8] turned out to be 0.483. For the sequence “TTGATCAA (double strand) [8-mer TTGATCAA]”, the binding signal (PBM E-score (-0.5 to 0.5)) in [3] amounted to 0.481; in data set [8] it was 0.493.

For the origin of these results see article PMC4434323.
